The values that follow come from patent US20140148356.

In series [1] the target is HBcAg (Hepatitis B virus core protein, 21 kDa) (Hepatitis B virus) (UniProt P03146). Conditions: affinity qPCR; 7.6 nM HBcAg, 1 nM DNA.
The target is the same in series [2]. Conditions: affinity qPCR on Ni-NTA plate; 0.1 nM aptamer, 0.1-5 nM protein; 20 mM Tris-HCl pH 7.6, 5 mM KCl, 100 mM NaCl, 5 mM MgCl2, 1 mM CaCl2, RT 1 h.

Chain of HBcAg (Hepatitis B virus core protein, 21 kDa) (Hepatitis B virus) (P03146 whole entry): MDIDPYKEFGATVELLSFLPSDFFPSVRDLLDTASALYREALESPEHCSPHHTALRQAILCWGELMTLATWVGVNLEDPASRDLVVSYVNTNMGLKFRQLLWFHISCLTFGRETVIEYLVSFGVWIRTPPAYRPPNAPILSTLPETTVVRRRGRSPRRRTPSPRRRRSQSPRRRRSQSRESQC

Consider “AGCAGCACAGAGGTCAGATGACATCTAGAACCAACGGTTCTGTTTGATGAGAATTCGGCCCCTATGCGTGCTACCGTGAA [A-19]”, for which, in series [1], the binding signal worked out at 1.17 % bound. The sequence “AGCAGCACAGAGGTCAGATGAGGCCTGGTGATCGTGCCCAGGCCATATGAGCAAGGAACCCCTATGCGTGCTACCGTGAA [A-9]” displayed a binding signal in series [1] of 1 % bound. For the sequence “AGCAGCACAGAGGTCAGATGGTTACATGCGCAGTAGCCGACGTACTCTGGTAAAAGGTAGCCTATGCGTGCTACCGTGAA [A-38]”, in series [2], the Kd amounted to 160 pM. The same sequence gave a binding signal in series [1] of 7.2 % bound. In series [1], “AGCAGCACAGAGGTCAGATGTTGCATACGCCAAACAAGCATTGACAAGGTAACCCTGGGCCCTATGCGTGCTACCGTGAA [A-23]” yielded a binding signal of 1.45 % bound.

Consider “AGCAGCACAGAGGTCAGATGTTTCCGAGGGAGTGGAATTAGCAAGGTGGAAGTGTTTCTACCTATGCGTGCTACCGTGAA [A-18]”, for which the Kd in series [2] was 140 pM. This sequence returned a binding signal in series [1] of 8.3 % bound.
